Experimental data: publication PMC6774866 (Molecular immunology, 2019)
Where no end group is shown, it is not given here.

Assays:
[1] = target: UBC6e(1-197), randomly biotinylated with biotin-NHS (Mus musculus, UniProt Q9JJZ4, biotin on exposed Lys residues (random, biotin-N-hydroxysuccinimide ester)); assay: BLI
[2] = target: UBC6e(1-197)-LPETGGG-biotin (Mus musculus, UniProt Q9JJZ4, biotin at the C-terminus (LPETGGG-biotin, by sortagging)); assay: BLI
[3] = target: T1, Biotinylated 14-residue UBC6e peptide (Mus musculus (identical in human), UniProt Q9JJZ4, also: biotin, position not given here); assay: BLI
T1 chain: QADQEAKELARQIS-NH2

[4] = target: T2, eGFP-UBC6e(168-186) (Mus musculus (printed stretch matches …, UniProt Q9JJZ4, chimera, also: joined to eGFP)); assay: pull-down
T2 chain: GSSQADQEAKELARQISFK-NH2

[5] = target: T3, Arl3 sortagged with the UBC6e(168-186) tag (Mus musculus (UBC6e tag), UniProt Q9JJZ4, chimera, also: sortagged to Arl3); assay: pull-down
T3 chain: GSSQADQEAKELARQISFK-NH2

Sequence of UBC6e(1-197), randomly biotinylated with biotin-NHS (Q9JJZ4 1-197): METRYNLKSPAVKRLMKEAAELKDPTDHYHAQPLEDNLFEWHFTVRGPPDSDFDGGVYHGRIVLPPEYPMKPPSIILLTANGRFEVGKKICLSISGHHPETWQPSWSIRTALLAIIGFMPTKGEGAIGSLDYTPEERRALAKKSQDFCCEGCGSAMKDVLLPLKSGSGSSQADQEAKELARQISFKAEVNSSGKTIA
Sequence of UBC6e(1-197)-LPETGGG-biotin (Q9JJZ4 1-197): as above

B1: VHH05 (VHH)
VHH: QVQLQESGGGLVQPGGSLRLSCAASGFVFENSAMAWYRQAPGKERELIAVIGTTFIKLAESVKGRFTISRDNAKSTVYLQMNNLKPEDTAVYYCSKSGAYWGQGTQVTVSS
Question: B1 was tested. Which Kd [1] did it give?
Answer: 14 nM

Question: And the Kd [2]?
Answer: 16 nM

Question: And the Kd [3]?
Answer: ~0.15 nM

Question: Does B1 bind [4]?
Answer: binds

Question: Does B1 bind [5]?
Answer: binds
